Positions count from the first letter of the chain named.

Broadly, the Kd is the free concentration of one partner at which half of the binding sites on the other are occupied at equilibrium, for simple one-to-one binding.

Experiment [1] concerns the target T1, recombinant human FN14-Fc fusion protein (rhFN14-Fc; R&D Systems) (human, UniProt Q9NP84 28-79).
T1 construct: Bought reagent; Detected with PECy5-labeled anti-human IgG(Fc); also called soluble FN14; PECy5-labelled soluble antigen; not shown: Fc part of the bought fusion protein (detected with anti-human IgG(Fc))
T1 sequence: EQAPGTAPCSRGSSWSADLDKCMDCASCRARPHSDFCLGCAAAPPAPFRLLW
Kind of experiment: saturation binding of PECy5-labelled soluble antigen to FN14-specific DTLacO cells, flow cytometry. In general terms: In flow cytometry, cells or beads pass a laser one at a time.

The target in experiment [2] is T2, human FN14 on the cell surface (FN14-transfected cells or cancer cell lines intrinsically expressing FN14, … (human, UniProt Q9NP84 28-129)).
T2 construct: The cells in the assays are human cancer lines or FN14-transfected cells (293F/FN14); also called TWEAKR; CD266
T2 sequence: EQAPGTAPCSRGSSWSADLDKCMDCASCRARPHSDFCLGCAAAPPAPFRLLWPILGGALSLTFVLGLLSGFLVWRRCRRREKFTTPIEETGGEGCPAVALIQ
The experiment is described as follows: binding affinity; method not restated in Example 3 (saturation binding on FN14-expressing cells by the methods of Example 1).

In experiment [3] the target is T2, human FN14 on the cell surface …. The experiment is described as follows: saturation binding of recombinant antibody on target-expressing cells.
Description: (§1) Saturation binding kinetics were determined by either staining FN14-specific DTLacO cells with various concentrations of fluorescent-labeled soluble antigen, or by staining FN14-transfected cells or cancer cell lines intrinsically expressing FN14 with various concentrations of the recombinant chimeric anti-FN14 mAbs.
The target is the same in experiment [4]. Kind of experiment: saturation binding of recombinant antibody on target-expressing cells (A375 melanoma).
Description: as §1
The target is the same in experiment [5]. The experiment is described as follows: binding affinity; method not restated in Example 3 (saturation binding on FN14-expressing cells by the methods of Example 1). This is another data set of the same source.
Experiment [6] addresses T1, recombinant human FN14-Fc fusion …. Kind of experiment: saturation binding of soluble antigen to DTLacO[FS24] cells, flow cytometry.

B1: surface immunoglobulin of the FN14-specific DTLacO cell population FS17 (antibody, V domains shown)
VH: AVTLDESGGGLQTPGGALSLVCKASGFTFSSYDMAWVRQEPGKGLEWVAGIDDDGSGRRYAPAVKGRATISRDNGQSTLRLQLNNLRAEDTGTYYCTKCAYTGGCDYEGGYIDAWGHGTEVIVSS
VL: ALTQPASVSANPGETVKITCSGGGSSYYAGSYYYGWYQQKAPGSAPVTLIYYNNKRPSDIPSRFSGSLSGSTNTLTITGVRADDEAVYFCGSIDNSGAAFGAGTTLTVL
notes: Chicken surface IgM on DTLacO cells
For B1, the Kd in experiment [1] turned out to be 0.7 nM.

B2: chimeric PS4 antibody (parent of the humanized PS4 versions) (antibody, human IgG1, lambda, V domains shown)
VH: B1 VH with A35F, T102S, G103S
VL: ALTQPASVSANPGETVKITCSGGGSSYYAGSYYYGWYQQKSPGSAPVTVIYYNNKRPSDIPSRFSGSLSGSTNTLTITGVRADDEAVYFCGSIDNSGAAFGAGTTLTVLG
notes: also called Chicken PS4; original chimeric antibody PS4
On to B2, for which the Kd in experiment [2] came to 0.21 nM.

B3: recombinant chimeric monoclonal antibody PS4B (chicken V regions, human IgG1 / lambda constant regions) (antibody, V domains shown)
VH: B1 VH with A35F, T102S, G103S
VL: B2 VL
B3: in experiment [3], the Kd amounted to 0.35 nM.

B4: recombinant chimeric monoclonal antibody FS24 (chicken V regions, human IgG1 / lambda constant regions) (antibody, V domains shown)
VH: B1 VH with D53Y, A100G
VL: B2 VL with A6S, S41A, V49L
notes: also called mAb FS24; Chicken FS24
B4: the dissociation constant (Kd) turned out to be 0.21 nM in experiment [4] and 0.26 nM in experiment [5].

B5: recombinant chimeric monoclonal antibody FS17 (chicken V regions, human IgG1 / lambda constant regions) (antibody, V domains shown)
VH: B1 VH
VL: B2 VL with S41A, V49L
notes: also called mAb FS17
Consider B5, for which the Kd in experiment [3] amounted to 0.36 nM.

B6: surface immunoglobulin of the FN14-specific DTLacO cell population FS24 (antibody, V domains shown)
VH: B1 VH with D53Y, A100G
VL: B1 VL with A6S
notes: Chicken surface IgM on DTLacO cells; also called DTLacO[FS24]
For B6, the Kd was 0.44 nM in experiment [6] and 0.67 nM in experiment [1].

B7: recombinant chimeric monoclonal antibody PS4A (chicken V regions, human IgG1 / lambda constant regions) (antibody, V domains shown)
VH: B1 VH with A35F, T102S, G103S
VL: B2 VL with A6S, S41A, V49L
Take B7: the Kd in experiment [3] worked out at 0.21 nM.

B8: surface immunoglobulin of the FN14-specific DTLacO cell population FS10 (antibody, V domains shown)
VH: B1 VH with T102S, G103S
VL: B1 VL with P46L, I93A
notes: Chicken surface IgM on DTLacO (DT40-derived) cells
Turning to B8, the Kd in experiment [1] turned out to be 25 nM.

B9: recombinant chimeric monoclonal antibody FS10 (chicken V regions, human IgG1 / lambda constant regions) (antibody, V domains shown)
VH: B1 VH with T102S, G103S
VL: B2 VL with S41A, P46L, V49L, I93A
notes: expressed in 293F cells; also called mAb FS10
As for B9, the Kd in experiment [3] is 25 nM.

B10: Humanized PS4: H.1/L.1 (antibody, human IgG1)
heavy: not shown
light: SYELTQPPSVSVSPGQTARITCSGGGSSYYAGSYYYGWYQQKPGQAPVTVIYYNNKRPSGIPERFSGSLSGSTNTLTISGVQAEDEADYYCGSIDNSGAAFGGGTKLTVLGQPKAAPSVTLFPPSSEELQANKATLVCLISDFYPGAVTVAWKADSSPVKAGVETTTPSKQSNNKYAASSYLSLTPEQWKSHRSYSCQVTHEGSTVEKTVAPTECS
notes: also called first humanized version of PS4
B10: the Kd in experiment [2] is 15 nM.

B11: Humanized PS4: H.1/L.9 (antibody, human IgG1, lambda)
heavy: not shown
light: ALTQPPSVSVSPGQTARITCSGGGSSYYAGSYYYGWYQQKPGQAPVTVIYYNNKRPSGIPERFSGSLSGSTNTLTISGVQAEDEADYYCGSIDNSGAAFGGGTKLTVLGQPKAAPSVTLFPPSSEELQANKATLVCLISDFYPGAVTVAWKADSSPVKAGVETTTPSKQSNNKYAASSYLSLTPEQWKSHRSYSCQVTHEGSTVEKTVAPTECS
notes: also called humanized PS4 antibody H.1/L.9
Molecule B11 showed a Kd in experiment [2] of 0.24 nM.

B12: Humanized FS24 (antibody, human IgG1, lambda, V domains shown)
VH: EVQLVESGGGLVQPGGSLRLSCAASGFTFSSYDMAWVRQAPGKGLEWVAGIDYDGSGRRYAPAVKGRATISRDNSKNTLYLQMNSLRAEDTAVYYCTKCGYTGGCDYEGGYIDAWGQGTLVTVSS
VL: ELTQPPSVSVSPGQTARITCSGGGSSYYAGSYYYGWYQQKPGQAPVTLIYYNNKRPSGIPERFSGSLSGSTNTLTISGVQAEDEADYYCGSIDNSGAAFGGGTKLTVLG
notes: also called hFS24; humanized FS24 antibody
On to B12, for which the affinity in experiment [5], expressed as Kd, was 0.21 nM.

The record behind these values is patent US20120258121A1 (OMEROS, published 2012).
